The values below come from the supplement of paper PMC11246515.

The nature of this series: total protein half-life in vivo (active degradation + dilution); higher = more stable protein.
[1] abbreviates: E. coli NCM3722 delta-clpP, growth: N-lim chemostat, doubling time 6 h.
The mark [2] stands for this setting: E. coli NCM3722 delta-smpB, growth: N-lim chemostat, doubling time 6 h.
The mark [3] stands for this setting: wild type E. coli NCM3722, growth: C-lim chemostat, doubling time 6 h.
Where [4] appears, read: wild type E. coli NCM3722, growth: C-lim chemostat, doubling time 12 h.
The mark [5] stands for this setting: wild type E. coli NCM3722, growth: N-lim chemostat, doubling time 6 h.
Where [6] appears, read: wild type E. coli NCM3722, growth: N-lim chemostat, doubling time 12 h.
The mark [7] stands for this setting: wild type E. coli NCM3722, growth: P-lim chemostat, doubling time 12 h.
The mark [8] stands for this setting: E. coli NCM3722 delta-clpP delta-lon delta-hslV, growth: N-lim chemostat, doubling time 6 h.
The mark [9] stands for this setting: E. coli NCM3722 delta-hslV, growth: N-lim chemostat, doubling time 6 h.
[10] abbreviates: E. coli NCM3722 delta-lon, growth: N-lim chemostat, doubling time 6 h.
[11] abbreviates: wild type E. coli NCM3722, growth: C-lim chemostat, doubling time 3 h.
Setting [12] is: wild type E. coli NCM3722, growth: P-lim chemostat, doubling time 6 h.

± gives the standard deviation of the averaged measurements.

Regarding “MSSQYLRIFQQPRSAILLILGFASGLPLALTSGTLQAWMTVENIDLKTIGFFSLVGQAYVFKFLWSPLMDRYTPPFFGRRRGWLLATQILLLVAIAAMGFLEPGTQLRWMAALAVVIAFCSASQDIVFDAWKTDVLPAEERGAGAAISVLGYRLGMLVSGGLALWLADKWLGWQGMYWLMAALLIPCIIATLLAPEPTDTIPVPKTLEQAVVAPLRDFFGRNNAWLILLLIVLYKLGDAFAMSLTTTFLIRGVGFDAGEVGVVNKTLGLLATIVGALYGGILMQRLSLFRALLIFGILQGASNAGYWLLSITDKHLYSMGAAVFFENLCGGMGTSAFVALLMTLCNKSFSATQFALLSALSAVGRVYVGPVAGWFVEAHGWSTFYLFSVAAAVPGLILLLVCRQTLEYTRVNDNFISRTAYPAGYAFAMWTLAAGVSLLAVWLLLLTMDALDLTHFSFLPALLEVGVLVALSGVVLGGLLDYLALRKTHLT [P0AE16]”, the “total protein half-life in vivo” value by setting is: under setting [1], 5.97 h; under setting [2], 6.24 h; under setting [3], 4.45 h; under setting [4], 4.64 h; under setting [5], 6.55 h; under setting [6], 12.4 ± 4.7 h. Besides, the “total protein half-life in vivo” value under setting [7] stood at 10.3 ± 1.2 h.
With “MRICSDQPCIVLLTEKDVWIRVNGKEPISLKANHMALLNCENNIIDVSSLNNTLVAHISHDIIKDYLRFLNKDLSQIPVWQRSATPILTLPCLTPDVFRVAAQHSMMPAETESEKERTRALLFTVLSRFLDSKKFVSLMMYMLRNCVSDSVYQIIESDIHKDWNLSMVASCLCLSPSLLKKKLKSENTSYSQIITTCRMRYAVNELMMDGKNISQVSQSCGYNSTSYFISVFKDFYGMTPLHYVSQHRERTVA”, the “total protein half-life in vivo” value under setting [2] is 1.24 h.
Regarding “MSNRKYFGTDGIRGRVGDAPITPDFVLKLGWAAGKVLARHGSRKIIIGKDTRISGYMLESALEAGLAAAGLSALFTGPMPTPAVAYLTRTFRAEAGIVISASHNPFYDNGIKFFSIDGTKLPDAVEEAIEAEMEKEISCVDSAELGKASRIVDAAGRYIEFCKATFPNELSLSELKIVVDCANGATYHIAPNVLRELGANVIAIGCEPNGVNINAEVGATDVRALQARVLAEKADLGIAFDGDGDRVIMVDHEGNKVDGDQIMYIIAREGLRQGQLRGGAVGTLMSNMGLELALKQLGIPFARAKVGDRYVLEKMQEKGWRIGAENSGHVILLDKTTTGDGIVAGLQVLAAMARNHMSLHDLCSGMKMFPQILVNVRYTAGSGDPLEHESVKAVTAEVEAALGNRGRVLLRKSGTEPLIRVMVEGEDEAQVTEFAHRIADAVKAV”, the “total protein half-life in vivo” value under setting [8] was 6.02 ± 0.36 h; the “total protein half-life in vivo” value under setting [1] amounted to 6.03 ± 0.15 h; the “total protein half-life in vivo” value under setting [9] amounted to 5.92 ± 0.21 h; the “total protein half-life in vivo” value under setting [10] was determined as 6.65 ± 0.13 h; the “total protein half-life in vivo” value under setting [2] was 5.71 ± 0.24 h; the “total protein half-life in vivo” value under setting [11] worked out at 3.24 ± 0.19 h. Besides, the “total protein half-life in vivo” value was determined as 6.27 ± 0.035 h under setting [3]; 12.62 ± 0.093 h under setting [4]; 6.08 ± 0.13 h under setting [5]; 11.8 ± 0.54 h under setting [6]; 6.24 ± 0.16 h under setting [12]; 13.8 ± 0.27 h under setting [7].
As for “MNKSLVAVGVIVALGVVWTGGAWYTGKKIETHLEDMVAQANAQLKLTAPESNLEVSYQNYHRGVFSSQLQLLVKPIAGKENPWIKSGQSVIFNESVDHGPFPLAQLKKLNLIPSMASIQTTLVNNEVSKPLFDMAKGETPFEINSRIGYSGDSSSDISLKPLNYEQKDEKVAFSGGEFQLNADRDGKAISLSGEAQSGRIDAVNEYNQKVQLTFNNLKTDGSSTLASFGERVGNQKLSLEKMTISVEGKELALLEGMEISGKSDLVNDGKTINSQLDYSLNSLKVQNQDLGSGKLTLKVGQIDGEAWHQFSQQYNAQTQALLAQPEIANNPELYQEKVTEAFFSALPLMLKGDPVITIAPLSWKNSQGESALNLSLFLKDPATTKEAPQTLAQEVDRSVKSLDAKLTIPVDMATEFMTQVAKLEGYQEDQAKKLAKQQVEGASAMGQMFRLTTLQDNTITTSLQYANGQITLNGQKMSLEDFVGMFAMPALNVPAVPAIPQQ”, the “total protein half-life in vivo” value was determined as 6.64 ± 0.32 h under setting [8]; 6.77 ± 0.68 h under setting [1]; 6.24 ± 0.28 h under setting [9]; 6.136 ± 0.016 h under setting [10]; 6 ± 0.23 h under setting [2]; 3.14 ± 0.049 h under setting [11]. Also, the “total protein half-life in vivo” value runs as follows: under setting [3], 5.99 ± 0.08 h; under setting [4], 11.8 ± 1.2 h; under setting [5], 6.21 ± 0.15 h; under setting [6], 13.15 ± 0.042 h; under setting [12], 5.98 ± 0.13 h; under setting [7], 12.9 ± 0.87 h.
Consider “MNNFNLHTPTRILFGKGAIAGLREQIPHDARVLITYGGGSVKKTGVLDQVLDALKGMDVLEFGGIEPNPAYETLMNAVKLVREQKVTFLLAVGGGSVLDGTKFIAAAANYPENIDPWHILQTGGKEIKSAIPMGCVLTLPATGSESNAGAVISRKTTGDKQAFHSAHVQPVFAVLDPVYTYTLPPRQVANGVVDAFVHTVEQYVTKPVDAKIQDRFAEGILLTLIEDGPKALKEPENYDVRANVMWAATQALNGLIGAGVPQDWATHMLGHELTAMHGLDHAQTLAIVLPALWNEKRDTKRAKLLQYAERVWNITEGSDDERIDAAIAATRNFFEQLGVPTHLSDYGLDGSSIPALLKKLEEHGMTQLGENHDITLDVSRRIYEAAR”, for which the “total protein half-life in vivo” value runs as follows: under setting [1], 5.02 ± 0.23 h; under setting [9], 4.48 ± 0.25 h; under setting [10], 4.949 ± 0.041 h; under setting [2], 4.48 ± 0.23 h; under setting [11], 3.27 ± 0.089 h; under setting [3], 6.48 ± 1 h. Also, the “total protein half-life in vivo” value under setting [4] worked out at 11.6 ± 0.92 h; the “total protein half-life in vivo” value under setting [5] amounted to 5.22 ± 0.38 h; the “total protein half-life in vivo” value under setting [6] came out at 7.834 ± 0.065 h; the “total protein half-life in vivo” value under setting [12] is 5.35 ± 0.47 h; the “total protein half-life in vivo” value under setting [7] was determined as 10.2 ± 0.89 h.
